This note sets out measurements from patent US20250195685A1 (CAPSTAN THERAPEUTICS, published 2025).

Like-named read-outs stand apart in the source and are kept apart here.

A word on the EC50: it is the concentration at which the effect is half-maximal. The term Kd denotes the free concentration of one partner at which half of the binding sites on the other are occupied at equilibrium, for simple one-to-one binding. The term koff denotes the rate constant with which the complex falls apart. Usually kon stands for a measure of how fast the partners come together. Usually EC50 (read off the curve) stands for the concentration at which the effect is half-maximal. A lower EC50 (read off the curve) goes with a more potent agent.

Assay [1] has as its target T1, cynomolgus macaque CD8 on expanded primary T cells (cynomolgus macaque).
T1 construct: also called CD4- CD8+ cynomolgus macaque T cells
The assay is described as follows: flow cytometry, Cyno Expanded T cells Donor 10, gated on live CD8 T cells (via CD3+CD4-). The procedure:
(§1) To obtain the results shown in FIG. 8A and FIG. 8B, 5×10⁴ expanded primary T cells (human, cynomolgus macaque or rhesus monkey) were thawed and transferred to a V bottom 96-well culture plate (Corning). Cells were washed twice with Cell Staining buffer (#420201, Biolegend). Each anti-CD8α antibody was diluted in four-fold antibody titration series from 60 μg/mL to 0.057 ng/mL into Cell Staining buffer. Cells were stained with each diluted antibody solution for 30 minutes on ice. Cells were then washed three times with Cell Staining buffer and primary antibody binding was detected by staining with anti-human Fc BV421 conjugate antibody (#410704, Biolegend) at 1:200 dilution for 30 minutes on ice. […] Flow cytometry data was analyzed by Flowjo 10 (Becton, Dickinson & Company) to measure the geometric median fluorescence intensity (gMFI) of the on-cell binding from each antibody. The gMFI values were normalized with the gMFI measured in the sample stained with only the secondary detection antibody and plotted against the concentration of the added antibodies. The binding curves were constructed using Graphpad Prism software, and EC₅₀ values were determined by non-linear curve fitting.
(Flow cytometry measures light scatter and fluorescence of single cells or particles in a stream.)

Assay [2] addresses T2, human CD8αα homodimer, recombinant protein (Acro Biosystems) (human, UniProt P01732 22-182).
T2 construct: also called CD8αα antigen; biotinylated CD8α recombinant protein (CDA-H82E3)
The assay is described as follows: BLI binding kinetic analysis, whole antibody, sample stressed at pH 8.5, 40 °C, 7 days. On the technique in general: Biolayer interferometry detects binding as a change in optical thickness at a sensor tip.

The target in assay [3] is T2, human CD8αα homodimer, recombinant …. The assay is described as follows: BLI steady state, whole hIgG1-LALAPA antibody on CD8α-His (Ni-NTA sensor), 30 °C.
The target is the same in assay [4]. The assay is described as follows: BLI binding kinetic analysis, whole antibody, sample kept at pH 7.2, 4C (unstressed).
The target in assay [5] is T3, human CD8 on cells (CD8-overexpressing HEK293T cells, SupT1, HPB-ALL, human T cells, transfected HEK293 of … (human, UniProt P01732 22-235)).
T3 construct: whole, on cells; also called cell surface CD8
The assay is described as follows: flow cytometry, Human Expanded T cells Donor 6, gated on live CD8 T cells (via CD3+CD4-). The procedure:
as §1

For assay [6], the target named is T3, human CD8 on cells (CD8-overexpressing …). The assay is described as follows: flow cytometry, Human Expanded T cells Donor 6, gated on CD4- T cells, anti-human Fc BV421. On the procedure: (§2) Binding was measured by fluorescence from the BV421 fluorophore-conjugated anti-human Fc secondary antibody that recognize the binders. The gMFI was normalized to the gMFI of the secondary antibody in the absence of the anti-CD8α binders.
as §1, with “Cells were stained with each diluted antibody solution for 30 minutes on ice.” left out

Assay [7] concerns the target T4, rhesus macaque CD8 on expanded primary T cells (rhesus macaque).
T4 construct: also called CD4- CD8+ rhesus T cells
The assay is described as follows: flow cytometry, Rhesus Expanded T cells Donor 8, gated on CD4- T cells, anti-human Fc BV421. The procedure:
as §2
as §1, with “Cells were stained with each diluted antibody solution for 30 minutes on ice.” left out

For assay [8], the target named is T3, human CD8 on cells (CD8-overexpressing …). The assay is described as follows: flow cytometry, Human Expanded T cells Donor 5, gated on CD4- T cells, anti-human Fc BV421. On the procedure: as §2
as §1, with “Cells were stained with each diluted antibody solution for 30 minutes on ice.” left out

For assay [9], the target named is T4, rhesus macaque CD8 on expanded primary …. The assay is described as follows: flow cytometry, Rhesus Expanded T cells Donor 9, gated on live CD8 T cells (via CD3+CD4-). On the procedure:
as §1

The target of assay [10] is T3, human CD8 on cells (CD8-overexpressing …). The assay is described as follows: flow cytometry, Human Expanded T cells Donor 5, gated on live CD8 T cells (via CD3+CD4-). On the procedure:
as §1

Assay [11] concerns the target T4, rhesus macaque CD8 on expanded primary …. The assay is described as follows: flow cytometry, Rhesus Expanded T cells Donor 9, gated on live CD8 T cells (via CD3+CD4-). On the procedure:
as §1
The source holds these as a separate data set.

T3 sequence (P01732 22-235): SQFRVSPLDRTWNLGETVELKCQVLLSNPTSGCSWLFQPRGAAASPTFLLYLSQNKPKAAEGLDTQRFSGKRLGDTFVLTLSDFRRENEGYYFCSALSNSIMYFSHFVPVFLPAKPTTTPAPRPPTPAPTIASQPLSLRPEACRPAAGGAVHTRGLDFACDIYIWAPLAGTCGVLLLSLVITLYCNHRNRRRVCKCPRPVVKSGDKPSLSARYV
T2 sequence (P01732 22-182 limits assumed): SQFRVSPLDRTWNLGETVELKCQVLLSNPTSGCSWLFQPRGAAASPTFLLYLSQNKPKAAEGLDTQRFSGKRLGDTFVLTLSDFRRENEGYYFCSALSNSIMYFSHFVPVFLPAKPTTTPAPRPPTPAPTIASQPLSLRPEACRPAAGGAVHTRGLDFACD

B1: CBD1017ch whole antibody (chimeric CT8 antibody) (antibody, V domains shown)
VH: EVQLQQSGPELVKPGASVKISCKASRYTFTDYNLHWVKLSHEKSLEWIGFIYPYNGGTGYNQKFKNKAKLTVDYSSSTAYMELRSLTSVDAAVYYCARDHRYNEGVSFDYWGQGTTLTVSS
VL: NIVLTQSPASLAVSLGQRATISCRASESVDGFGNSFMNWYQQKPGQSPKLLIYLASNLESGVPARFSGSGSRTDFTLTIDPVEADDAATYYCQQNNEDPYTFGGGTKLEIK
notes: Chimeric antibody comprising the variable regions of the donor antibody CT8; detected with anti-human Fc
For B1, the EC50 in assay [1] turned out to be 0.057 µg/mL; in [5], 0.052 µg/mL; in assay [9] it was 0.308 nM; in assay [10], 0.051 µg/mL; in [11], 0.045 µg/mL. Moreover, the Kd was determined as 0.55 nM in assay [2], 0.58 nM in [3] and 0.43 nM in [4]. Also, the figures for the koff in assay [2] and in assay [4] were 0.000795 s⁻¹ and 0.000655 s⁻¹, respectively. The kon in [2] was 1.45e+06 M⁻¹ s⁻¹; in assay [4], 1.53e+06 M⁻¹ s⁻¹. The “EC50 (read off the curve)” value in [6], in assay [7] and in assay [8] was approximately 0.05 µg/mL throughout.

B2: CBD1033 whole antibody, human IgG1 with Fc-silencing mutations L234A, L235A and P329A (CBD1033-hIgG1-LALAPA) (antibody, V domains shown)
VH: QVQLVQSGAEVKKPGASVKVSCKASRYTFTDYNLHWVRQAPGQGLEWMGFIYPYNGGTGYAQKFQGRVTMTVDTSTSTAYMELSSLRSEDTAVYYCARDHRYNEGVSFDYWGQGTTVTVSS
VL: DIQLTQSPSSLSASVGDRATITCRASESVDGFGNSFMNWYQQKPGKAPKLLIYLASNLESGVPSRFSGSGSGTDFTLTISSVQPEDFATYYCQQNNEDPYTFGQGTKLEIKR
notes: On tLNPs the antibody was SATA-modified or AJICAP-thiolated (CBD1033.29) and conjugated to the LNP; also called CBD1033.3; CBD1033 IgG1
Take B2: the EC50 was determined as 0.169 µg/mL in assay [1]; 0.112 µg/mL in assay [5]; 0.993 nM in [9]; 0.094 µg/mL in [10]; 0.145 µg/mL in assay [11]. The Kd in [2] was determined as 2.19 nM; in assay [3], 2.27 nM; in [4], 1.66 nM. Moreover, the koff in assay [2] came to 0.00309 s⁻¹; in assay [4], 0.00308 s⁻¹. The kon was found to be 1.41e+06 M⁻¹ s⁻¹ in [2] and 1.85e+06 M⁻¹ s⁻¹ in assay [4]. The “EC50 (read off the curve)” value in assay [6], in assay [7] and in assay [8] was approximately 0.1 µg/mL throughout.
